Measured values reported in PMC9363494, “C-terminal truncation modulates α-Synuclein’s cytotoxicity and aggregation by promoting the interactions with membrane and chaperone” (Communications Biology, 2022).

Target: T1, C-terminally truncated α-synuclein (residues 1-99) (UniProt P37840 1-99)
T1 construct: α-synuclein with a deletion of the C-terminus, amino acids 1-99; Uniformly 15N-enriched for the NMR experiments; also called CT-α-syn; source: E. coli BL21 (DE3), purified (SP cation exchange, Superdex 75)
Assay: NMR titration; 1H-15N HSQC of 0.3 mM 15N-enriched FL- or CT-α-syn titrated with PDI (mole ratios 10:1 to 1:1, 0-300 μM PDI); 20 mM HEPES, 100 mM NaCl, 5 mM TCEP, pH 7.0, 10% D2O, 15 °C; KD from fits of the average CSPs of residues in segment 1 and in segment 2
Settings: both partners purified

B1: protein disulfide isomerase (enzyme)
chain: not shown
notes: human protein disulfide isomerase (PDI); the human PDI gene cloned into pET-28a; The vector has a TEV protease cleavage site after the His6-tag; no cleavage step is described; also called PDI; source: E. coli BL21 (DE3), purified (HisTrap, Resource Q, Superdex 200)
- KD of segment 1: ~40 µM
- KD of segment 2: ~400 µM
